Measurements reported in patent US20240109965A1 (Ablynx, published 2024).

Columns and labels:
[1] = molecular target: T1, human T cell receptor (TCRαβ) on primary human T cells (human); test: cell-based or functional assay
[2] = molecular target: T2, cynomolgus TCRαβ-zipper protein (cynomolgus); test: SPR Biacore 8K+, multi-cycle kinetics, TCR-zipper immobilized
T2 construct: also called cyTCR(AEA41865)-zipper; CynoTCRαβ-zipper
Method: Binding of purified TCE-CD123-ALB and CD123-TCE-ALB ISVD constructs to human TCRαβ-zipper protein (huTCR(2XN9)-zipper, in-house produced) and cynomolgus TCRαβ-zipper protein (cyTCR(AEA41865)-zipper, in-house produced) was probed by Surface Plasmon Resonance (SPR) (Cytiva, Biacore 8K+). Both targets were immobilized on a CM5 sensor chip using standard amine coupling chemistry. […] Each concentration of the ISVDs was injected for 180s and dissociation was assessed during 600s.
Data was double referenced by subtracting a reference flow cell (FC) and a blank buffer injection. Affinity constants (ka, kd and KD) were calculated applying the Langmuir 1:1 interaction model using the Biacore Insight Evaluation Software (Cytiva, Version 3.0.12.15655).
T2 TCR alpha: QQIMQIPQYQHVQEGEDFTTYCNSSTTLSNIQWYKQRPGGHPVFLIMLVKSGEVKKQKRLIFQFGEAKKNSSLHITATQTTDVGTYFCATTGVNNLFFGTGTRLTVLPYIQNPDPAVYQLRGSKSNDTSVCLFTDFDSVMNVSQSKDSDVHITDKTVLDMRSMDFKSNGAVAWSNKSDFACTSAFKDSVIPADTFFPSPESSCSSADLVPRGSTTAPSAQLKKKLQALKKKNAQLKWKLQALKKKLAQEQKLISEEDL
T2 TCR beta: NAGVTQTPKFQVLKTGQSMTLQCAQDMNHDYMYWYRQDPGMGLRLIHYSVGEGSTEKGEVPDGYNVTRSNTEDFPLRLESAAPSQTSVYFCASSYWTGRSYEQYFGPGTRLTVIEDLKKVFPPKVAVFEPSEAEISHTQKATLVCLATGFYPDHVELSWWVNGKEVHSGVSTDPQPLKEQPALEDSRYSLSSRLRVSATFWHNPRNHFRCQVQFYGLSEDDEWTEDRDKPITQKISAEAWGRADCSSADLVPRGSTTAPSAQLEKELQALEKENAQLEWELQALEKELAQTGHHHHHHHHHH

[3] = molecular target: T1, human T cell receptor (TCRαβ) on …; test: cell-based or functional assay; remark: listed apart in the source
[4] = molecular target: T3, cynomolgus T cell receptor (TCRαβ) on primary cynomolgus T cells (cynomolgus); test: cell-based or functional assay
T3 V domain 1: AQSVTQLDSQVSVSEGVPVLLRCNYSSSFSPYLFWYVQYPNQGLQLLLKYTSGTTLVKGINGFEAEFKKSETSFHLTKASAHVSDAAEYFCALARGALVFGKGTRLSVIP
T3 V domain 2: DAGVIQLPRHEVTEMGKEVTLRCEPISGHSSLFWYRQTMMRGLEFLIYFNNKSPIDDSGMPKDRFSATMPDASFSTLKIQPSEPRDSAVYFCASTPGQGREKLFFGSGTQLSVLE

T1 sequence (P0DTU3 134-275, chain 1 of 2): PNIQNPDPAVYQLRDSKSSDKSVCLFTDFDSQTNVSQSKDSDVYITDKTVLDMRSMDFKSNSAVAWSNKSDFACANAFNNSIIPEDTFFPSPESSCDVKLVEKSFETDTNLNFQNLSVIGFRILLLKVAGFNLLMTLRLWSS
T1 sequence (P01850 other isoform, or with tags, fused parts or gaps, chain 2 of 2, further chain): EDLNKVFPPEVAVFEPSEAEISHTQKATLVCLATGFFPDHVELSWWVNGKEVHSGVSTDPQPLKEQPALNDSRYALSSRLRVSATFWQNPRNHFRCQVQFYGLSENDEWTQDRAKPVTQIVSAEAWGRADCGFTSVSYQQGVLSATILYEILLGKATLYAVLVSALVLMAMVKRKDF

B1: T017001028 (bispecific antibody)
chain: EVQLVESGGGVVQPGGSLRLSCAASGTTLDYYVIGWFRQAPGKEREGVSCISSSDGYTYYADSVKGRFTISRDNAKNTVYLQMNSLRPEDTALYYCATDPYYSSCHPFFADYEYDYWGQGTLVTVSSGGGGSGGGSEVQLVESGGGVVQPGGSLRLSCVASGYVHKINFYGWYRQAPGKEREKVAHISIGDQTDYAESAKGRFTISRDESKNTVYLQMNSLRPEDTAAYYCRALSRIYPYDYWGQGTLVTVSSGGGGSGGGSEVQLVESGGGVVQPGGSLRLSCAASGFTFRSFGMSWVRQAPGKGPEWVSSISGSGSDTLYADSVKGRFTISRDNSKNTLYLQMNSLRPEDTALYYCTIGGSLSRSSQGTLVTVSS
- EC50 (M), human T cell mediated MOLM-13 cell killing, Donor #1 [1]: 6.7e-10 M
- EC50 (M), human T cell mediated MOLM-13 cell killing, Donor #2 [1]: 3.2e-09 M
- Kd [2]: 400 nM

B2: T017001030 (bispecific antibody)
chain: EVQLVESGGGVVQPGGSLRLSCAASGTTLDYYVIGWFRQAPGKEREGVSCISSSDGYTYYADSVKGRFTISRDNAKNTVYLQMNSLRPEDTALYYCATDPYYSSCHPFFADYEYDYWGQGTLVTVSSGGGGSGGGSEVQLVESGGGVVQPGGSLRLSCVASGYVHKINFYGWYRQAPGKEREKVAHISIGDQTDYAESAKGRFTISRDESKNTVYLQMNSLRPEDTAAYYCRALSRISPYDYWGQGTLVTVSSGGGGSGGGSEVQLVESGGGVVQPGGSLRLSCAASGFTFRSFGMSWVRQAPGKGPEWVSSISGSGSDTLYADSVKGRFTISRDNSKNTLYLQMNSLRPEDTALYYCTIGGSLSRSSQGTLVTVSS
- EC50 (M), human T cell mediated MOLM-13 cell killing, Donor #1 [1]: 5.8e-09 M
- Kd [2]: 3600 nM

B3: T017001027 (bispecific antibody)
chain: EVQLVESGGGVVQPGGSLRLSCAASGTTLDYYVIGWFRQAPGKEREGVSCISSSDGYTYYADSVKGRFTISRDNAKNTVYLQMNSLRPEDTALYYCATDPYYSSCHPFFADYEYDYWGQGTLVTVSSGGGGSGGGSEVQLVESGGGVVQPGGSLRLSCVASGYVHKINFYGWYRQAPGKEREKVAHISIGDQTDYADSAKGRFTISRDESKNTVYLQMNSLRPEDTAAYYCRALSRIWPYDYWGQGTLVTVSSGGGGSGGGSEVQLVESGGGVVQPGGSLRLSCAASGFTFRSFGMSWVRQAPGKGPEWVSSISGSGSDTLYADSVKGRFTISRDNSKNTLYLQMNSLRPEDTALYYCTIGGSLSRSSQGTLVTVSS
- EC50 (M), human T cell mediated MOLM-13 cell killing, Donor #1 [1]: 5.7e-10 M
- EC50 (M), human T cell mediated MOLM-13 cell killing, Donor #2 [1]: 2.8e-09 M
- Kd [2]: 190 nM

B4: T017001017 (bispecific antibody)
chain: EVQLVESGGGVVQPGGSLRLSCVASGYVHKINFYGWYRQAPGKEREKVAHISIGDQTDYADSAKGRFTISRDESKNTVYLQMNSLRPEDTAAYYCRALSRIWPYDYWGQGTLVTVSSGGGGSGGGSEVQLVESGGGVVQPGGSLRLSCAASGTTLDYYVIGWFRQAPGKEREGVSCISSSDGYTYYADSVKGRFTISRDNAKNTVYLQMNSLRPEDTALYYCATDPYYSSCHPFFADYEYDYWGQGTLVTVSSGGGGSGGGSEVQLVESGGGVVQPGGSLRLSCAASGFTFRSFGMSWVRQAPGKGPEWVSSISGSGSDTLYADSVKGRFTISRDNSKNTLYLQMNSLRPEDTALYYCTIGGSLSRSSQGTLVTVSS
- Potency (M) - human T cells, KG-1a cell killing [3]: 2.1e-10 M
- Potency (M) - cyno T cells, KG-1a cell killing [4]: 3.9e-11 M
- EC50 (M), human T cell mediated MOLM-13 cell killing, Donor #1 [1]: 4.5e-11 M
- EC50 (M), human T cell mediated MOLM-13 cell killing, Donor #2 [1]: 9.2e-11 M
- Kd [2]: 13 nM

B5: T017001021 (bispecific antibody)
chain: EVQLVESGGGVVQPGGSLRLSCVASGYVHKINFYGWYRQAPGKEREKVAHISIGDQTDYAESAKGRFTISRDESKNTVYLQMNSLRPEDTAAYYCRALSRIQPYDYWGQGTLVTVSSGGGGSGGGSEVQLVESGGGVVQPGGSLRLSCAASGTTLDYYVIGWFRQAPGKEREGVSCISSSDGYTYYADSVKGRFTISRDNAKNTVYLQMNSLRPEDTALYYCATDPYYSSCHPFFADYEYDYWGQGTLVTVSSGGGGSGGGSEVQLVESGGGVVQPGGSLRLSCAASGFTFRSFGMSWVRQAPGKGPEWVSSISGSGSDTLYADSVKGRFTISRDNSKNTLYLQMNSLRPEDTALYYCTIGGSLSRSSQGTLVTVSS
- Potency (M) - human T cells, KG-1a cell killing [3]: 5.7e-09 M
- Potency (M) - cyno T cells, KG-1a cell killing [4]: 9.4e-10 M
- EC50 (M), human T cell mediated MOLM-13 cell killing, Donor #1 [1]: 2.3e-10 M
- EC50 (M), human T cell mediated MOLM-13 cell killing, Donor #2 [1]: 2.1e-09 M
- Kd [2]: 3400 nM

B6: T017001018 (bispecific antibody)
chain: EVQLVESGGGVVQPGGSLRLSCVASGYVHKINFYGWYRQAPGKEREKVAHISIGDQTDYAESAKGRFTISRDESKNTVYLQMNSLRPEDTAAYYCRALSRIYPYDYWGQGTLVTVSSGGGGSGGGSEVQLVESGGGVVQPGGSLRLSCAASGTTLDYYVIGWFRQAPGKEREGVSCISSSDGYTYYADSVKGRFTISRDNAKNTVYLQMNSLRPEDTALYYCATDPYYSSCHPFFADYEYDYWGQGTLVTVSSGGGGSGGGSEVQLVESGGGVVQPGGSLRLSCAASGFTFRSFGMSWVRQAPGKGPEWVSSISGSGSDTLYADSVKGRFTISRDNSKNTLYLQMNSLRPEDTALYYCTIGGSLSRSSQGTLVTVSS
- Potency (M) - human T cells, KG-1a cell killing [3]: 2.7e-10 M
- Potency (M) - cyno T cells, KG-1a cell killing [4]: 4e-11 M
- EC50 (M), human T cell mediated MOLM-13 cell killing, Donor #1 [1]: 3.3e-11 M
- EC50 (M), human T cell mediated MOLM-13 cell killing, Donor #2 [1]: 1e-10 M
- Kd [2]: 32 nM

B7: T017001020 (bispecific antibody)
chain: EVQLVESGGGVVQPGGSLRLSCVASGYVHKINFYGWYRQAPGKEREKVAHISIGDQTDYAESAKGRFTISRDESKNTVYLQMNSLRPEDTAAYYCRALSRISPYDYWGQGTLVTVSSGGGGSGGGSEVQLVESGGGVVQPGGSLRLSCAASGTTLDYYVIGWFRQAPGKEREGVSCISSSDGYTYYADSVKGRFTISRDNAKNTVYLQMNSLRPEDTALYYCATDPYYSSCHPFFADYEYDYWGQGTLVTVSSGGGGSGGGSEVQLVESGGGVVQPGGSLRLSCAASGFTFRSFGMSWVRQAPGKGPEWVSSISGSGSDTLYADSVKGRFTISRDNSKNTLYLQMNSLRPEDTALYYCTIGGSLSRSSQGTLVTVSS
- Potency (M) - human T cells, KG-1a cell killing [3]: 7.6e-10 M
- Kd [2]: 550 nM

B8: T017001019 (bispecific antibody)
chain: EVQLVESGGGVVQPGGSLRLSCVASGYVHKINFYGWYRQAPGKEREKVAHISIGDQTDYAESAKGRFTISRDESKNTVYLQMNSLRPEDTAAYYCRALSRITPYDYWGQGTLVTVSSGGGGSGGGSEVQLVESGGGVVQPGGSLRLSCAASGTTLDYYVIGWFRQAPGKEREGVSCISSSDGYTYYADSVKGRFTISRDNAKNTVYLQMNSLRPEDTALYYCATDPYYSSCHPFFADYEYDYWGQGTLVTVSSGGGGSGGGSEVQLVESGGGVVQPGGSLRLSCAASGFTFRSFGMSWVRQAPGKGPEWVSSISGSGSDTLYADSVKGRFTISRDNSKNTLYLQMNSLRPEDTALYYCTIGGSLSRSSQGTLVTVSS
- Potency (M) - human T cells, KG-1a cell killing [3]: 2.3e-09 M
- Potency (M) - cyno T cells, KG-1a cell killing [4]: 7.4e-10 M
- EC50 (M), human T cell mediated MOLM-13 cell killing, Donor #1 [1]: 1.5e-10 M
- EC50 (M), human T cell mediated MOLM-13 cell killing, Donor #2 [1]: 5.2e-10 M
- Kd [2]: 1600 nM
